Measurements: patent US20150044251A1 (Novartis, published 2015)

B1: Sta006 (other)
chain: MASCGNQGEKNNKAETKSYKMDDGKTVDIPKDPKRIAVVAPTYAGGLKKLGANIVAVNQQVDQSKVLKDKFKGVTKIGDGDVEKVAKEKPDLIIVYSTDKDIKKYQKVAPTVVVDYNKHKYLEQQEMLGKIVGKEDKVKAWKKDWEETTAKDGKEIKKAIGQDATVSLFDEFDKKLYTYGDNWGRGGEVLYQAFGLKMQPEQQKLTAKAGWAEVKQEEIEKYAGDYIVSTSEGKPTPGYESTNMWKNLKATKEGHIVKVDAGTYWYNDPYTLDFMRKDLKEKLIKAAK
notes: Seen as monomer and dimer in the formulations
B2: EsxAB hybrid polypeptide (other)
chain: MAMIKMSPEEIRAKSQSYGQGSDQIRQILSDLTRAQGEIAANWEGQAFSRFEEQFQQLSPKVEKFAQLLEEIKQQLNSTADAVQEQDQQLSNNFGLQASGGGSGGYKGIKADGGKVDQAKQLAAKTAKDIEACQKQTQQLAEYIEGSDWEGQFANKVKDVLLIMAKFQEELVQPMADHQKAIDNLSQNLAKYDTLSIKQGLDRVNP
notes: also called EsxAB monomer

Columns and labels:
[1] = target: the molecule itself; experiment: SEC-HPLC of tetravalent pre-lyophilized formulation; self-association (dimer peak)
[2] = target: B1; experiment: capillary electrophoresis (SDS-MW) of tetravalent formulation, pH 6, no EDTA, 25 C up to 72 h; attributed to redox reactions
Method: (§1) Capillary Electrophoresis analyses were performed with a Beckman Coulter PA800 instrument, SDS-MW application. The sample was prepared by mixing 90 μL of the pre-lyophilized formulation with 10 μL of TRIS-SDS buffer.

[3] = target: the molecule itself; experiment: capillary electrophoresis (SDS-MW) of tetravalent formulation, pH 6, no EDTA, 25 C up to 72 h; self-association (disulfide-linked dimer)
Method: as §1

Binder | binding result [1] | binding result [2] | binding result [3]
B1 | binds |  | 
B2 |  | binds | binds
